Series [1] concerns HeLa Kyoto. The series is described as follows: solubility change mitosis vs G1/S (difference of NP-40 vs SDS log2 ratios) (log2 ratio difference); higher = more soluble in mitosis.
Series [2] deals with HeLa Kyoto. The series is described as follows: thermal stability score vs G1/S (z-score of summed log2 fold changes over temperatures); higher = more thermally stable than in G1/S.
The subject of series [3] is HeLa Kyoto. The series is described as follows: solubility in G1/S (NP-40 vs SDS abundance) (log2 ratio); higher = more soluble. The following applies: cell cycle stage: G1/S.
The subject of series [4] is HeLa Kyoto. The series is described as follows: melting temperature (median over replicates), in situ; higher = more thermally stable.
Where [5] appears, read: cell cycle stage: early G1 (4.5 h after nocodazole release).
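For melting temperature (median over replicates), in situ in this document: HeLa Kyoto cells synchronized by double thymidine or nocodazole block, proteins quantified by TMT10plex mass spectrometry, three independent biological replicates.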
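For solubility change mitosis vs G1/S (difference of NP-40 vs SDS log2 ratios) in this document: synchronized HeLa Kyoto cells (double thymidine block for G1/S, nocodazole release for mitosis), protein amounts in NP-40 versus SDS lysates quantified by mass spectrometry, three biological replicates.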
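For solubility in G1/S (NP-40 vs SDS abundance) in this document: HeLa Kyoto cells arrested at G1/S by double thymidine block, proteins quantified by TMT10plex mass spectrometry in mild NP-40 versus SDS extracts, three biological replicates.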
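For thermal stability score vs G1/S (z-score of summed log2 fold changes over temperatures) in this document: synchronized HeLa Kyoto cells, proteins quantified by TMT10plex mass spectrometry, three biological replicates, mitosis taken 0.5 h after nocodazole release, G1/S directly after double thymidine block.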

Take “MEHIRTTKVEQVKLLDRFSTSNKSLTGTLYLTATHLLFIDSHQKETWILHHHIASVEKLALTTSGCPLVIQCKNFRTVHFIVPRERDCHDIYNSLLQLSKQAKYEDLYAFSYNPKQNDSERLQGWQLIDLAEEYKRMGVPNSHWQLSDANRDYKICETYPRELYVPRIASKPIIVGSSKFRSKGRFPVLSYYHQDKEAAICRCSQPLSGFSARCLEDEHLLQAISKANPVNRYMYVMDTRPKLNAMANRAAGKGYENEDNYSNIRFQFVGIENIHVMRSSLQKLLEVNGTKGLSVNDFYSGLESSGWLRHIKAVMDAAIFLAKAITVENASVLVHCSDGWDRTSQVCSLGSLLLDSYYRTIKGFMVLIEKDWISFGHKFSERCGQLDGDPKEVSPVFTQFLECVWHLTEQFPQAFEFSEAFLLQIHEHIHSCQFGNFLGNCQKEREELKLKEKTYSLWPFLLEDQKKYLNPLYSSESHRFTVLEPNTVSFNFKFWRNMYHQFDRTLHPRQSVFNIIMNMNEQNKQLEKDIKDLESKIKQRKNKQTDGILTKELLHSVHPESPNLKTSLCFKEQTLLPVNDALRTIEGSSPADNRYSEYAEEFSKSEPAVVSLEYGVARMTC [MTMR6]”: the “solubility change mitosis (log2)” value in the series with HeLa Kyoto [1] worked out at 0.0297. Moreover, the values for the thermal stability score in the series with HeLa Kyoto [2] (setting [5]) and in the series on HeLa Kyoto [2] (cell cycle stage: mitosis) were -0.167 and 0.0404, respectively. In addition, the “solubility in G1/S (log2)” value in the series with HeLa Kyoto [3] was -0.264. Also, the melting temperature was found to be 51 °C in the series on HeLa Kyoto [4] (cell cycle stage: G1/S) and 50.5 °C in the series on HeLa Kyoto [4] (cell cycle stage: mitosis).
Take “MEKNGNNRKLRVCVATCNRADYSKLAPIMFGIKTEPEFFELDVVVLGSHLIDDYGNTYRMIEQDDFDINTRLHTIVRGEDEAAMVESVGLALVKLPDVLNRLKPDIMIVHGDRFDALALATSAALMNIRILHIEGGEVSGTIDDSIRHAITKLAHYHVCCTRSAEQHLISMCEDHDRILLAGCPSYDKLLSAKNKDYMSIIRMWLGDDVKSKDYIVALQHPVTTDIKHSIKMFELTLDALISFNKRTLVLFPNIDAGSKEMVRVMRKKGIEHHPNFRAVKHVPFDQFIQLVAHAGCMIGNSSCGVREVGAFGTPVINLGTRQIGRETGENVLHVRDADTQDKILQALHLQFGKQYPCSKIYGDGNAVPRILKFLKSIDLQEPLQKKFCFPPVKENISQDIDHILETLSALAVDLGGTNLRVAIVSMKGEIVKKYTQFNPKTYEERINLILQMCVEAAAEAVKLNCRILGVGISTGGRVNPREGIVLHSTKLIQEWNSVDLRTPLSDTLHLPVWVDNDGNCAALAERKFGQGKGLENFVTLITGTGIGGGIIHQHELIHGSSFCAAELGHLVVSLDGPDCSCGSHGCIEAYASGMALQREAKKLHDEDLLLVEGMSVPKDEAVGALHLIQAAKLGNAKAQSILRTAGTALGLGVVNILHTMNPSLVILSGVLASHYIHIVKDVIRQQALSSVQDVDVVVSDLVDPALLGAASMVLDYTTRRIY [GNE]”: the “solubility change mitosis (log2)” value in the series on HeLa Kyoto [1] was -0.159. Further, the thermal stability score stood at 3.4 with HeLa Kyoto [2] (setting [5]) and 4.39 in the series on HeLa Kyoto [2] (cell cycle stage: mitosis). Also, in the series with HeLa Kyoto [3], the “solubility in G1/S (log2)” value is -0.138. The melting temperature with HeLa Kyoto [4] (cell cycle stage: G1/S) was found to be 55.2 °C; in the series with HeLa Kyoto [4] (cell cycle stage: mitosis), 55.8 °C.
Regarding “MEKSNETNGYLDSAQAGPAAGPGAPGTAAGRARRCAGFLRRQALVLLTVSGVLAGAGLGAALRGLSLSRTQVTYLAFPGEMLLRMLRMIILPLVVCSLVSGAASLDASCLGRLGGIAVAYFGLTTLSASALAVALAFIIKPGSGAQTLQSSDLGLEDSGPPPVPKETVDSFLDLARNLFPSNLVVAAFRTYATDYKVVTQNSSSGNVTHEKIPIGTEIEGMNILGLVLFALVLGVALKKLGSEGEDLIRFFNSLNEATMVLVSWIMWYVPVGIMFLVGSKIVEMKDIIVLVTSLGKYIFASILGHVIHGGIVLPLIYFVFTRKNPFRFLLGLLAPFATAFATCSSSATLPSMMKCIEENNGVDKRISRFILPIGATVNMDGAAIFQCVAAVFIAQLNNVELNAGQIFTILVTATASSVGAAGVPAGGVLTIAIILEAIGLPTHDLPLILAVDWIVDRTTTVVNVEGDALGAGILHHLNQKATKKGEQELAEVKVEAIPNCKSEEETSPLVTHQNPAGPVASAPELESKESVL [SLC1A4]”, in the series on HeLa Kyoto [1], the “solubility change mitosis (log2)” value was found to be 0.0714. Moreover, the thermal stability score in the series on HeLa Kyoto [2] (setting [5]) is -1.93; in the series on HeLa Kyoto [2] (cell cycle stage: mitosis), -4.67. Besides, the “solubility in G1/S (log2)” value with HeLa Kyoto [3] was -0.527. In addition, the melting temperature with HeLa Kyoto [4] (cell cycle stage: G1/S) came out at 58.9 °C; with HeLa Kyoto [4] (cell cycle stage: mitosis) it was 62.8 °C.
On to “MEKSRMNLPKGPDTLCFDKDEFMKEDFDVDHFVSDCRKRVQLEELRDDLELYYKLLKTAMVELINKDYADFVNLSTNLVGMDKALNQLSVPLGQLREEVLSLRSSVSEGIRAVDERMSKQEDIRKKKMCVLRLIQVIRSVEKIEKILNSQSSKETSALEASSPLLTGQILERIATEFNQLQFHAVQSKGMPLLDKVRPRIAGITAMLQQSLEGLLLEGLQTSDVDIIRHCLRTYATIDKTRDAEALVGQVLVKPYIDEVIIEQFVESHPNGLQVMYNKLLEFVPHHCRLLREVTGGAISSEKGNTVPGYDFLVNSVWPQIVQGLEEKLPSLFNPGNPDAFHEKYTISMDFVRRLERQCGSQASVKRLRAHPAYHSFNKKWNLPVYFQIRFREIAGSLEAALTDVLEDAPAESPYCLLASHRTWSSLRRCWSDEMFLPLLVHRLWRLTLQILARYSVFVNELSLRPISNESPKEIKKPLVTGSKEPSITQGNTEDQGSGPSETKPVVSISRTQLVYVVADLDKLQEQLPELLEIIKPKLEMIGFKNFSSISAALEDSQSSFSACVPSLSSKIIQDLSDSCFGFLKSALEVPRLYRRTNKEVPTTASSYVDSALKPLFQLQSGHKDKLKQAIIQQWLEGTLSESTHKYYETVSDVLNSVKKMEESLKRLKQARKTTPANPVGPSGGMSDDDKIRLQLALDVEYLGEQIQKLGLQASDIKSFSALAELVAAAKDQATAEQP [COG2]”, for which the “solubility change mitosis (log2)” value in the series with HeLa Kyoto [1] was -0.0298. The thermal stability score with HeLa Kyoto [2] (setting [5]) was 0.195; in the series with HeLa Kyoto [2] (cell cycle stage: mitosis), 0.834. Moreover, in the series with HeLa Kyoto [3], the “solubility in G1/S (log2)” value is 0.0645. In addition, the results for the melting temperature in the series with HeLa Kyoto [4] (cell cycle stage: G1/S) and in the series on HeLa Kyoto [4] (cell cycle stage: mitosis) were 50.2 °C and 49.4 °C, respectively.

The values are drawn from the supplement of paper PMC5998384.
